The results in this text go back to patent publication US20210107971A1 (UCB, published 2021).

Assay [1] has as its target T1, human beta synuclein (rPeptide) (human, UniProt Q16143 1-134).
T1 construct: also called rPeptide beta synuclein
As to the kind of experiment: Western blot, 1 microgram synuclein. In general terms: A western blot detects proteins with antibodies after separation by electrophoresis.
Method: The binding of antibodies raised against human alpha synuclein to human beta synuclein were tested by Western blot using rPeptide beta synuclein. […] The membrane was blocked in PBS with 3% BSA and 0.1% Tween20. […] The blot was washed extensively in PBS with 0.1% Tween20, PBS and water. Chemi-luminescence was measured after addition of ECL Western blot substrate (Pierce).

For assay [2], the target named is T2, biotinylated peptide corresponding to residues 117 to 126 of human alpha synuclein (peptide PVDPDNEAYE) (human, also: biotinylated, site not given here).
T2 construct: Captured on streptavidin plates for ELISA
T2 peptide: PVDPDNEAYE
Put plainly: streptavidin-capture ELISA on biotinylated peptide PVDPDNEAYE, HRP anti-rabbit IgG Fc, TMB, OD 630 nm. (In an ELISA, binding on a coated surface is turned into a signal by an enzyme label.)

No end group written: not given here.

T1 sequence (Q16143 whole entry): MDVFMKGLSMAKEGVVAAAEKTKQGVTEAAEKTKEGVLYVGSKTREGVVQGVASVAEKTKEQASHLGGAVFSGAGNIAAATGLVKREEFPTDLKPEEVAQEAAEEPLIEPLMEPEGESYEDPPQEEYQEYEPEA

B1: monoclonal 6470 rabbit IgG1 (antibody, V domains shown)
VH: QSVEESGGRLVTPGTPLTLTCTVSGIDLSSHDMYWVRQAPGKGLEYIGAIYASGSTYYASWAKGRFTISKTSTTVDLKMTSLTTEDTATYFCARIHYGNSGGLWGQGTLVTVSS
VL: AIVMTQTPSSKSVAVGDTVTINCQASQSVYKNNYLAWFQQKPGQPPKQLIYGASTLASGVPSRFKGSGSGTQFTLTISDVVCDDAATYYCAGYKGGRNDGFAFGGGTEVVVKR
notes: Recombinant rabbit IgG1/kappa expressed in Expi293 cells
B1: the binding result in assay [1] and in assay [2] was “no binding” each time.
